# Laboratory results from patent US20080311034A1 (published 2008).
# T1: recombinant human His-tagged FcγRIIa (R&D Systems #1330-CD-050) (human, UniProt P12318 36-218, limits assumed)
# T1 construct: Bought; also called CD32a; recombinant, soluble, human FcγRIIa
# T1 sequence (looked up): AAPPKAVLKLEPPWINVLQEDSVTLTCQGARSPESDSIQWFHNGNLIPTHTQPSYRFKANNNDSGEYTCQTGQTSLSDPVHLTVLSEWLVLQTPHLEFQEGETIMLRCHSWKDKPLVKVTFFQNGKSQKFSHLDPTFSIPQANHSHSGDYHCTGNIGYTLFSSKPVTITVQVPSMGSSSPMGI
# T2: recombinant human FcγRIIb (R&D Systems #1875-CD-050) (human, UniProt P31994 46-217, limits assumed)
# T2 construct: Bought; also called CD32b; recombinant, soluble, human FcγRIIb
# T2 sequence (looked up): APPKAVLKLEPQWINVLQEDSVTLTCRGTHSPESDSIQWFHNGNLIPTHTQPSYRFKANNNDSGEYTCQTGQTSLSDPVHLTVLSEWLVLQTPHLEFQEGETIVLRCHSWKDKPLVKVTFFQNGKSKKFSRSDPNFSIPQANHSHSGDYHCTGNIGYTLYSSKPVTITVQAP
# Tests used:
# [1] = biological target: T1, recombinant human His-tagged FcγRIIa …; test: AlphaScreen
# Procedure: (§1) FcγRIIa (CD32a) AlphaScreen—Nickel acceptor beads (Perkin Elmer #6760619C) were diluted 1:50 in assay buffer (PBS, pH 7.4, 4 mg/ml BSA, 0.01% Tween-20), and 27.5 μl were added to each well of a Nunc V-bottom polypropylene plate (VWR # 62409-108) (Powers G., Notebook 9006, pp. 169-175, 182-185). A 2.0 μg/ml solution of recombinant human His-tagged FcγRIIa (R&D Systems #1330-CD-050) was prepared in assay buffer and 27.5 μl added to each well of a separate Nunc V bottom polypropylene plate. Titrations of test Abs were prepared in the Nunc V bottom polypropylene plate starting at 30 μg/ml. A 2 μg/ml solution of biotinylated goat F(ab′)₂ anti-human IgG F(ab′)₂ (Jackson Immunoresearch #109-066-097) was prepared in assay buffer and 27.5 μl added to each well of another Nunc V bottom polypropylene plate. A 1:50 dilution of streptavidin donor beads (PerkinElmer # 6760002) was prepared in assay buffer and 27.5 μl added to each well of another Nunc V bottom polypropylene plate. A volume of 5 μl of each reagent was added to the corresponding quadrants of a low-volume, non-binding white 384-well plate (Corning # 3673) in the following order: acceptor beads, FcγRIIa, test Ab, biotinylated anti-human IgG F(ab′)₂, and streptavidin donor beads. The plates were incubated for 30 minutes with shaking and the O.D.s determined using an Envision plate reader.
# (§2) FcγRIIb (CD32b) AlphaScreen—The assay was performed as described above for FcγRIIa except that FcγRIIa was replaced with FcγRIIb (R&D Systems #1875-CD-050).
# [2] = biological target: T2, recombinant human FcγRIIb (R&D Systems …); test: AlphaScreen
# Procedure: as §1, §2
# [3] = biological target: T3, recombinant human His-tagged FcγRI (extracellular domain, R&D Systems #1257-FC-050) (human, UniProt P12314 16-292); test: ELISA
# T3 construct: extracellular domain; Bought; also called CD64; recombinant, soluble, human FcγRI
# T3 sequence (P12314 16-292): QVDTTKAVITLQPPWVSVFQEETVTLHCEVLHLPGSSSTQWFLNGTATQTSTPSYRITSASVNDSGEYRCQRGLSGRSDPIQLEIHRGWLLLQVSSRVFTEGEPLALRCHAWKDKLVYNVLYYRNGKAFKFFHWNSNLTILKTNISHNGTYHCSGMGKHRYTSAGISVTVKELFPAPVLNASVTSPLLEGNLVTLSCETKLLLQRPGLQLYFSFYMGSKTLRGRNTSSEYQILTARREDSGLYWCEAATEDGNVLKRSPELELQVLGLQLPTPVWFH
binder,measurement,setting,value
"YB2/0-CNTO 860 A330I (antibody, IgG1, N-linked glycan at heavy chain Asn297 (YB2/0-type, low fucose); not carried by the letters, IgG1/kappa Fc variant; stably expressed in YB2/0 cells (p4177/p2402); EU numbering; also called A330I (YB2/0 cell-derived); A330I mutant expressed in YB2/0 cells; copies: 2 + 2) heavy: not shown light: DIQMTQSPSSLSASVGDRVTITCKASQDIRKYLNWYQQKPGKAPKLLIYYATSLADGVPSRFSGSGSGTDYTFTISSLQPEDIATYYCLQHGESPYTFGQGTKLEITRTVAAPSVFIFPPSDEQLKSGTASVVCLLNNFYPREAKVQWKVDNALQSGNSQESVTEQDSKDSTYSLSSTLTLSKADYEKHKVYACEVTHQGLSSPVTKSFNRGEC",fold reduced binding,[1],8 fold
same,fold reduced binding,[2],500 fold
same,fold reduced binding,[3],< 2 fold
